Assay results reported in paper PMC7936274.

Target: T1, OapB (Bacillus halodurans, UniProt Q9KGD7 5-102)
T1 sequence: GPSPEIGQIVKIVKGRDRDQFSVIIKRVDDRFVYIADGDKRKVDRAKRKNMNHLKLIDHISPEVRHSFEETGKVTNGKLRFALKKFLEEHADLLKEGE
Test: X-ray crystallography

B1: OLE* (P12.2, P13, P14, P15 minimized OLE RNA) (structured_RNA)
RNA: GGCCAGUCUGGCGUUUGGUGACAGCGCCAAGUUCUUCGGAAUUGGGAAAUCCUACUGGCC
**Q.** Does B1 bind?
**A.** binds
